Where two headings read alike, the source gives them in different places.
Assays:
ICR mice [1] = details: mouse, in vivo, iv
rats = details: rat, in vivo
ICR mice [2] = assay: Tail flick test (heat radiation pain tester); type: in vivo; details: tail vein, morphine 5 mg/kg, other doses as in the writhing test
[3] = SD rats; for F: oral 50 mg/kg versus intravenous 10 mg/kg
in vivo = details: female, SD, rat, iv, 5 mg/kg
ICR mice [4] = details: mouse, in vivo, iv; remark: listed apart in the source
[5] = intravenous administration, 10 mg/kg

Row | SMILES | AUCINF [3, 5] [ng·h/mL] | AUClast [3, 5] [ng·h/mL] | CL [3, 5] [mL/min/k g] | MRTINF [3, 5] [h] | T1/2 [3, 5] [h] | Vss [3, 5] [L/kg] | Vz [3, 5] [L/kg] | F [3] [%] | AUCINF ([3]; oral administration, 50 mg/kg) [ng·h/mL] | AUClast ([3]; oral administration, 50 mg/kg) [ng·h/mL] | Cmax ([3]; oral administration, 50 mg/kg) | T1/2 ([3]; oral administration, 50 mg/kg) [h] | Tmax ([3]; oral administration, 50 mg/kg) [h] | level at 10 min (in vivo) [ng/mL] | level at 1 h (in vivo) [ng/mL] | level at 3 h (in vivo) [ng/mL] | tissue level at time at 10 min (in vivo) [ng/g] | tissue level at time at 1 h (in vivo) [ng/g] | tissue level at time at 3 h (in vivo) [ng/g] | other results
1 | COc1ccc2c3c1O[C@H]1[C@@H](O)C=C[C@H]4[C@@H](C2)N(C)CC[C@@]341 [Codeine, codeine] | – | – | – | – | – | – | – | – | – | – | – | – | – | – | – | – | – | – | – | Number of Writhing (ICR mice [1]; 30 mg/kg): 13.4±3.1
2 | CN1CC[C@]23c4c5ccc(O)c4O[C@H]2[C@@H](O)C=C[C@H]3[C@H]1C5 [Morphine, morphine] | – | – | – | – | – | – | – | – | – | – | – | – | – | – | – | – | – | – | – | Nose-pokes (rats): 24.0±2.2; Number of Writhing (ICR mice [1]; 5 mg/kg): 10.2±2.1; Heat pain value (ICR mice [2]; 0 hr (base value before administration)): 14.0 ± 2.2 s; Heat pain value (ICR mice [2]; 0.25 hr after administration): 22.7 ± 5.1 s; Heat pain value (ICR mice [2]; 1hr after administration): 42.4 ± 5.1 s; Heat pain value (ICR mice [2]; 2 hr after administration): 29.0 ± 4.7 s; Heat pain value (ICR mice [2]; 6 hr after administration): 13.5 ± 1.2 s; Heat pain value (ICR mice [2]; 24 hr after administration): 13.8 ± 1.5 s
3 | COc1ccc2c3c1O[C@H]1C(=O)CC[C@@]4(O)[C@@H](C2)N(C)CC[C@]314 [Oxycodone, oxycodone] | – | – | – | – | – | – | – | – | – | – | – | – | – | – | – | – | – | – | – | Number of Writhing (ICR mice [1]; 5 mg/kg): 9.9±3.2
4 | CN1CC[C@]23c4c5ccc(O)c4O[C@H]2[C@@H](OCCO[C@H]2C=C[C@H]4[C@H]6Cc7ccc(O)c8c7[C@@]4(CCN6C)[C@H]2O8)C=C[C@H]3[C@H]1C5 [α-6-O-PEG1-(morphine)2] | 98 | 83 | 342 | 2.46 | 2.59 | 47.3 | 72 | 3.7 | 92 | 78 | 56 | 11 | 1.0 | 891 | 138 | 38 | 687 | 299 | 183 | –
5 | CN1CC[C@]23c4c5ccc(O)c4O[C@H]2[C@@H](OCCOCCO[C@H]2C=C[C@H]4[C@H]6Cc7ccc(O)c8c7[C@@]4(CCN6C)[C@H]2O8)C=C[C@H]3[C@H]1C5 [α-6-O-PEG2-(morphine)2] | 107 | 90 | 307 | 2.08 | 2.88 | 37.2 | 52.1 | 4.8 | 35 | 27 | 18 | 4.0 | 2 | 1210 | 123 | 43 | 554 | 342 | 221 | –
6 | CN1CC[C@]23c4c5ccc(O)c4O[C@H]2[C@@H](OCCOCCOCCO[C@H]2C=C[C@H]4[C@H]6Cc7ccc(O)c8c7[C@@]4(CCN6C)[C@H]2O8)C=C[C@H]3[C@H]1C5 [α-6-O-PEG3-(morphine)2] | 112 | 104 | 296 | 2.18 | 2.31 | 27.8 | 43 | 3.2 | 18 | 15 | 12 | 5.1 | 2 | 1020 | 119 | 32 | 387 | 262 | 167 | –
7 | COc1ccc2c3c1O[C@H]1[C@@H](OCCOCCOCCOCCO[C@H]4C=C[C@H]5[C@H]6Cc7ccc(OC)c8c7[C@@]5(CCN6C)[C@H]4O8)C=C[C@H]4[C@@H](C2)N(C)CC[C@@]341 [α-6-O-PEG4-(codeine)2] | – | – | – | – | – | – | – | – | – | – | – | – | – | 1660 | 233 | 43 | 121 | 110 | 107 | Number of Writhing (ICR mice [4]; 30 mg/kg): 31.3±4.1
8 | CN1CC[C@]23c4c5ccc(O)c4O[C@H]2[C@@H](OCCOCCOCCOCCO[C@H]2C=C[C@H]4[C@H]6Cc7ccc(O)c8c7[C@@]4(CCN6C)[C@H]2O8)C=C[C@H]3[C@H]1C5 [α-6-O-PEG4-(morphine)2] | 137 | 122 | 238 | 6.12 | 4.71 | 64.3 | 94.3 | 17.1 | 81 | 70 | 47 | 6.4 | 3 | 1120 | 114 | 42 | 226 | 198 | 164 | Number of Writhing (ICR mice [4]; 10 mg/kg): 20.1±2.3
9 | CN1CC[C@]23c4c5ccc(O)c4O[C@H]2[C@@H](OCCOCCOCCOCCOCCO[C@H]2C=C[C@H]4[C@H]6Cc7ccc(O)c8c7[C@@]4(CCN6C)[C@H]2O8)C=C[C@H]3[C@H]1C5 [α-6-O-PEG5-(morphine)2] | 128 | 109 | 261 | 3.52 | 3.71 | 55.2 | 84 | 28.2 | 156 | 129 | 75 | 7.8 | 2.0 | 926 | 101 | 51 | 125 | 123 | 95 | –
10 | COc1ccc2c3c1O[C@H]1[C@@H](OCCOCCOCCOCCOCCOCCO[C@H]4C=C[C@H]5[C@H]6Cc7ccc(OC)c8c7[C@@]5(CCN6C)[C@H]4O8)C=C[C@H]4[C@@H](C2)N(C)CC[C@@]341 [α-6-O-PEG6-(codeine)2] | – | – | – | – | – | – | – | – | – | – | – | – | – | 1740 | 445 | 67 | 102 | 100 | 97 | Number of Writhing (ICR mice [4]; 30 mg/kg): 34.1±3.3
11 | CN1CC[C@]23c4c5ccc(O)c4O[C@H]2[C@@H](OCCOCCOCCOCCOCCOCCO[C@H]2C=C[C@H]4[C@H]6Cc7ccc(O)c8c7[C@@]4(CCN6C)[C@H]2O8)C=C[C@H]3[C@H]1C5 [α-6-O-PEG6-(morphine)2] | 158 | 144 | 204 | 3.22 | 3.42 | 38.6 | 57.7 | 21.2 | 84 | 73 | 54 | 4.8 | 3 | 1200 | 123 | 72 | 163 | 133 | 111 | Number of Writhing (ICR mice [4]; 10 mg/kg): 24.3±3.4
12 | CN1CC[C@]23c4c5ccc(O)c4O[C@H]2[C@@H](OCCOCCOCCOCCOCCOCCOCCO[C@H]2C=C[C@H]4[C@H]6Cc7ccc(O)c8c7[C@@]4(CCN6C)[C@H]2O8)C=C[C@H]3[C@H]1C5 [α-6-O-PEG7-(morphine)2] | – | – | – | – | – | – | – | – | – | – | – | – | – | 1170 | 117 | 71 | 177 | 111 | 105 | –
13 | CN1CC[C@]23c4c5ccc(O)c4O[C@H]2[C@@H](OCCOCCOCCOCCOCCOCCOCCOCCO[C@H]2C=C[C@H]4[C@H]6Cc7ccc(O)c8c7[C@@]4(CCN6C)[C@H]2O8)C=C[C@H]3[C@H]1C5 [α-6-O-PEG8-(morphine)2] | 188 | 162 | 221 | 10.8 | 6.83 | 84.7 | 125.2 | 7.6 | 31 | 22 | 22 | 5.2 | 3 | 1230 | 167 | 90 | 140 | 153 | 127 | –
14 | CN1CC[C@]23c4c5ccc(O)c4O[C@H]2[C@@H](OCCOCCOCCOCCOCCOCCOCCOCCOCCO[C@H]2C=C[C@H]4[C@H]6Cc7ccc(O)c8c7[C@@]4(CCN6C)[C@H]2O8)C=C[C@H]3[C@H]1C5 [α-6-O-PEG9-(morphine)2] | 259 | 221 | 166 | 7.91 | 8.33 | 60.1 | 92 | 5.2 | 17 | 11 | 11 | 11.5 | 3.0 | 1230 | 201 | 101 | 152 | 125 | 123 | –
15 | COCCOCCOCCOCCO[C@H]1C=C[C@H]2[C@H]3Cc4ccc(O)c5c4[C@@]2(CCN3C)[C@H]1O5 [α-6-O-mPEG4-morphine, reference compound] | – | – | – | – | – | – | – | – | – | – | – | – | – | – | – | – | – | – | – | Number of Writhing (ICR mice [4]; 10 mg/kg): 12.1±2.3
16 | COCCOCCOCCOCCOCCOCCO[C@H]1C=C[C@H]2[C@H]3Cc4ccc(O)c5c4[C@@]2(CCN3C)[C@H]1O5 [α-6-O-mPEG6-morphine, reference compound] | – | – | – | – | – | – | – | – | – | – | – | – | – | – | – | – | – | – | – | Number of Writhing (ICR mice [4]; 10 mg/kg): 15.3±3.4

Source: patent EP3409295A1 (priority 2016, dated 2017)
